The record followed here is patent publication US20220265769A1 (GEISINGER HEALTH, published 2022).

One test deals with T1, TBX3 (human, UniProt O15119 1-743, limits assumed).
T1 sequence (looked up): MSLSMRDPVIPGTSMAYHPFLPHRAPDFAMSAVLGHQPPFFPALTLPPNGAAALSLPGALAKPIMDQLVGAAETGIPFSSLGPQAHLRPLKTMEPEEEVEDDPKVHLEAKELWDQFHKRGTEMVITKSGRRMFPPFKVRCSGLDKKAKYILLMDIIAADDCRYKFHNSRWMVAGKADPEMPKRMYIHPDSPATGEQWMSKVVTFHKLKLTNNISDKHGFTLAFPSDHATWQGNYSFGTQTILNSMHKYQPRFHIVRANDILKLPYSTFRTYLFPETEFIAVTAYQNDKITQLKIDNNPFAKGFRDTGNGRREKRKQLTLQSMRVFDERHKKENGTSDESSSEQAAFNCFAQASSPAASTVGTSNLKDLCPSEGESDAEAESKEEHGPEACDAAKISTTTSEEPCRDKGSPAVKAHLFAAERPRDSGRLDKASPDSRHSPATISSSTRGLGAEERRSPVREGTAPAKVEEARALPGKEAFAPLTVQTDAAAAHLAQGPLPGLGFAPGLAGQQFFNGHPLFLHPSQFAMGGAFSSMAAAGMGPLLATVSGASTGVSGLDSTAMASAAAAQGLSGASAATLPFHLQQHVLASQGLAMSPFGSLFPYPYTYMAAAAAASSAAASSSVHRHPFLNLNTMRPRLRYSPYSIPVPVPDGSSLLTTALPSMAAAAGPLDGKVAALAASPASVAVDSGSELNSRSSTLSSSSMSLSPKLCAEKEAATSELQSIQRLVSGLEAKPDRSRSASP
In words: IP and immunoblot, primary human fibroblasts. On the technique in general: A western blot detects proteins with antibodies after separation by electrophoresis.

The target of another test is EZH2 (human, UniProt Q15910 1-746, limits assumed). In words: IP and immunoblot, T47D cells and primary human fibroblasts.
In a further test the target is HCF-1 (human, UniProt P51610 2-2035, limits assumed). The test can be described thus: IP and immunoblot, T47D, MDA-MB231 and PME cells (FIG. 14F).
The next test concerns the target T2, estrogen receptor (ERα) (human, UniProt P03372 1-595).
T2 construct: also called ESR1
T2 sequence (looked up): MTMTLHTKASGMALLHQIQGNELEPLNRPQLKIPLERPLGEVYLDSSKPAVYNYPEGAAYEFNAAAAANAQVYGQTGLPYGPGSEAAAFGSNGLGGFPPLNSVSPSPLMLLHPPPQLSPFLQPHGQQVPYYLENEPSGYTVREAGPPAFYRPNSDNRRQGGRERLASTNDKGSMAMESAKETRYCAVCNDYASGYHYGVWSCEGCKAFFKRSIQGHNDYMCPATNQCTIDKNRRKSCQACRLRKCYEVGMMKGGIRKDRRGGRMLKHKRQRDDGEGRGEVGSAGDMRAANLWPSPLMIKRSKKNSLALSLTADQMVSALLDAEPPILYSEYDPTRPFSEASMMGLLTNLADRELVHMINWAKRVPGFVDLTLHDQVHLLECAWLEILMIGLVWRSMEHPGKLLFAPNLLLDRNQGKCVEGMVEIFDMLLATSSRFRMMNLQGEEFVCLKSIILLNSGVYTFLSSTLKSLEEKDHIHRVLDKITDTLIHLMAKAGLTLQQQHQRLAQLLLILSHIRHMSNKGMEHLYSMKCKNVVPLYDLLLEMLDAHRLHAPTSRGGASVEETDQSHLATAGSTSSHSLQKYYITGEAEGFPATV
The description is as above.

Sequence of HCF-1 (P51610 2-2035 limits assumed): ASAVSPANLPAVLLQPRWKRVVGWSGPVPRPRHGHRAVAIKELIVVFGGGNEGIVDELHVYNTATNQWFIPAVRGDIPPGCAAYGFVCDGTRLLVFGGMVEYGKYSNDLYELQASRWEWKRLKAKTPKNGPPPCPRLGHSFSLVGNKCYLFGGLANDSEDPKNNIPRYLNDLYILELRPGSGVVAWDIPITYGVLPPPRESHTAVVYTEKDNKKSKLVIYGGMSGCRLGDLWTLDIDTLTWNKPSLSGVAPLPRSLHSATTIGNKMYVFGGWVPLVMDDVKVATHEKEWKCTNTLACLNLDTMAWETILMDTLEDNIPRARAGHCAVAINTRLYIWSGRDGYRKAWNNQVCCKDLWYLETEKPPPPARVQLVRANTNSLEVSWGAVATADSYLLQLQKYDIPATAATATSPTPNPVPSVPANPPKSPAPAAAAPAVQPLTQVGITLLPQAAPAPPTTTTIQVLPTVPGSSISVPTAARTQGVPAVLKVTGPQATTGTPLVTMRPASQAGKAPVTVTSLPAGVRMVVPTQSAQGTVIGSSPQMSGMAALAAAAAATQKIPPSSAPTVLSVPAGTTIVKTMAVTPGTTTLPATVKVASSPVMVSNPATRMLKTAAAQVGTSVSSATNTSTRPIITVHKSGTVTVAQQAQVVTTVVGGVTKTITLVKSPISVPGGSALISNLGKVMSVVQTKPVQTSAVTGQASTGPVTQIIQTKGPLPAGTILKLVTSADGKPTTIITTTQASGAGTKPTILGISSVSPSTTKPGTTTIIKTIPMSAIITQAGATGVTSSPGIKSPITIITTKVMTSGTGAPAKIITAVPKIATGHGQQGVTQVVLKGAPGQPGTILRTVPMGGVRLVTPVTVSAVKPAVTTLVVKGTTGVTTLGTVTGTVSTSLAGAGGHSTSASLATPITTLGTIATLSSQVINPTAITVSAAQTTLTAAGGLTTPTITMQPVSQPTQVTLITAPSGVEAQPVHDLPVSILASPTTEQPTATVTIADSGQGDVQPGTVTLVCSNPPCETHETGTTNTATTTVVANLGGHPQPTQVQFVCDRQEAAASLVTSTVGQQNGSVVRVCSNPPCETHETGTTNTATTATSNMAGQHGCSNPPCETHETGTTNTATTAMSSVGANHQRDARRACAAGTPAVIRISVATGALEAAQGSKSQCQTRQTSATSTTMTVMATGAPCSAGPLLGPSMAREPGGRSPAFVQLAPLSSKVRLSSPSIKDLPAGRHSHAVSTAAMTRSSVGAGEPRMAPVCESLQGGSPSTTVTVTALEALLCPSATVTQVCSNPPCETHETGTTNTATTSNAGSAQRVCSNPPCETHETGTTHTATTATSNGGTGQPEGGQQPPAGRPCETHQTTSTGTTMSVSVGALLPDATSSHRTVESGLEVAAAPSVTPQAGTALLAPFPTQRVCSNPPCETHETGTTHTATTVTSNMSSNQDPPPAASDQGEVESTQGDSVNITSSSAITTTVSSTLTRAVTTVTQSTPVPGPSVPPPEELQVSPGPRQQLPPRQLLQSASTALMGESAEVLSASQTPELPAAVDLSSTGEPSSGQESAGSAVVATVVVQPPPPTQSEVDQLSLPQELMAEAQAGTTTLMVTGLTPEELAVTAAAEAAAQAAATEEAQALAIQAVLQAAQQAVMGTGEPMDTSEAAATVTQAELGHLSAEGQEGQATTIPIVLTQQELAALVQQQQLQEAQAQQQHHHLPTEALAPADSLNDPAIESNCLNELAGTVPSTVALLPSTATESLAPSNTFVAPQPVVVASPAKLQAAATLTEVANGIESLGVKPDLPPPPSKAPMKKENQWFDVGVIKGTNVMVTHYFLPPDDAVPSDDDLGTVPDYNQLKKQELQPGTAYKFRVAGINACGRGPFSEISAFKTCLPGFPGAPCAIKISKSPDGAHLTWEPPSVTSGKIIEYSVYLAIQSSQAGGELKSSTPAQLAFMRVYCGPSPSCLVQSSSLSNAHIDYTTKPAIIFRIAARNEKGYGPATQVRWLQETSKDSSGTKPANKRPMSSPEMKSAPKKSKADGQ
Sequence of EZH2 (Q15910 whole entry): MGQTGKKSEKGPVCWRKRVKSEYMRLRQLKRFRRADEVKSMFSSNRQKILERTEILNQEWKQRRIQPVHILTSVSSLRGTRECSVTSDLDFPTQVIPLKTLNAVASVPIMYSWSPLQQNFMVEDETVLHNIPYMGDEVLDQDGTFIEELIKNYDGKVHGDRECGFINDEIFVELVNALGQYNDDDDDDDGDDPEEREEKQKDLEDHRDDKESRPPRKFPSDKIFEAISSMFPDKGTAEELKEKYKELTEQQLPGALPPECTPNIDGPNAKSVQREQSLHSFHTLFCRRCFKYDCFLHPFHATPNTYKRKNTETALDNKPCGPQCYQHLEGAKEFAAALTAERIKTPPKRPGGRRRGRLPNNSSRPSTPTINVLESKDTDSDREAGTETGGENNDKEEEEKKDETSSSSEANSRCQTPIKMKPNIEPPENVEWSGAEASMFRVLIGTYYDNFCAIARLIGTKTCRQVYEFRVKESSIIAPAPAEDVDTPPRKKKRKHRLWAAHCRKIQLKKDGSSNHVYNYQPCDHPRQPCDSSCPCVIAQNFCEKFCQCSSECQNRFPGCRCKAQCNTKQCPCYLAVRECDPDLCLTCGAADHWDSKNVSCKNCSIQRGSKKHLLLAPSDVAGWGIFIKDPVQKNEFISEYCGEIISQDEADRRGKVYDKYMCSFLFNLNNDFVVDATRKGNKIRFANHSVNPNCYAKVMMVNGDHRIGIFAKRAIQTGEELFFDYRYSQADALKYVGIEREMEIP

B1: CAPERα (Coactivator of AP1 and Estrogen Receptor) (other, human, UniProt Q14498 2-530, looked up)
chain: ADDIDIEAMLEAPYKKDENKLSSANGHEERSKKRKKSKSRSRSHERKRSKSKERKRSRDRERKKSKSRERKRSRSKERRRSRSRSRDRRFRGRYRSPYSGPKFNSAIRGKIGLPHSIKLSRRRSRSKSPFRKDKSPVREPIDNLTPEERDARTVFCMQLAARIRPRDLEEFFSTVGKVRDVRMISDRNSRRSKGIAYVEFVDVSSVPLAIGLTGQRVLGVPIIVQASQAEKNRAAAMANNLQKGSAGPMRLYVGSLHFNITEDMLRGIFEPFGRIESIQLMMDSETGRSKGYGFITFSDSECAKKALEQLNGFELAGRPMKVGHVTERTDASSASSFLDSDELERTGIDLGTTGRLQLMARLAEGTGLQIPPAAQQALQMSGSLAFGAVAEFSFVIDLQTRLSQQTEASALAAAASVQPLATQCFQLSNMFNPQTEEEVGWDTEIKDDVIEECNKHGGVIHIYVDKNSAQGNVYVKCPSIAAAIAAVNALHGRWFAGKMITAAYVPLPTYHNLFPDSMTATQLLVPSRR
notes: Endogenous protein immunoprecipitated or blotted from Dignam lysates; also called RBM39
As for B1, the binding result was “binds” with TBX3, “binds” with EZH2, “no binding” with HCF-1 and “no binding” in the test with estrogen receptor (ERα).
